Results on two substances are retold here after article PMC7437470.

For assay [1], the target named is Porcine Kallikrein (porcine).
Assay [2] addresses Porcine Kallikrein (porcine). Nature of the assay: enzyme inhibition kinetics (Morrison equation); serial dilution of the serpin, pre-incubated with the protease before the fluorogenic substrate; kallikrein 15 nM with Gly-Pro-Arg-NHMec 9.1 uM, chymotrypsin 2 ug/mL with Ala-Ala-Pro-Phe-NHMec 42.9 uM; 37°C; sodium acetate buffer pH 7.0; Ki from apparent Ki; triplicate.
Assay [3] addresses Human Cathepsin G (human) (UniProt P08311).
Chain of UniProt P08311 (P08311 21-244): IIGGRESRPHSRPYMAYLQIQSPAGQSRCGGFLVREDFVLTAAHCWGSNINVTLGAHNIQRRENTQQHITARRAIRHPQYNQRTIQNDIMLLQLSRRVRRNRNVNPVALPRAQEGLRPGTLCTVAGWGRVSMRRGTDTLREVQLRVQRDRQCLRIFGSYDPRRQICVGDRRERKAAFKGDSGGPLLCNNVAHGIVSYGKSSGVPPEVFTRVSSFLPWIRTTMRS
The target in a further assay is Human Chymase (human) (UniProt P23946).
Chain of UniProt P23946 (P23946 22-247): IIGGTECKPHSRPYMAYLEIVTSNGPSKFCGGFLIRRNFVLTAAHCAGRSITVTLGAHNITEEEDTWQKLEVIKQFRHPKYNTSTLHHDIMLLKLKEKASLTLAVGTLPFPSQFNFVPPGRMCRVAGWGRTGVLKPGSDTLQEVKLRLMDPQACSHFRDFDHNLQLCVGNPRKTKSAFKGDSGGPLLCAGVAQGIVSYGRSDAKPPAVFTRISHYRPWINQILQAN
For assay [4], the target named is Human Neutrophil elastase (human) (UniProt P08246).
Chain of UniProt P08246 (P08246 30-267): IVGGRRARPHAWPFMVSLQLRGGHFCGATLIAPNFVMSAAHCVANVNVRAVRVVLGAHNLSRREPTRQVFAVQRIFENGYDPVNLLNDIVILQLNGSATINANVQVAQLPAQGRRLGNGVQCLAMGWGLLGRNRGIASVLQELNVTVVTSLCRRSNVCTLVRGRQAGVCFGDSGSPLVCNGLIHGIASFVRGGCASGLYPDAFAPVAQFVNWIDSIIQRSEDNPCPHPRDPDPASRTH
Assay [5] concerns the target Bovine α-Chymotrypsin (bovine). As to the kind of experiment: enzyme inhibition kinetics (Morrison equation); serial dilution of the serpin, pre-incubated with the protease before the fluorogenic substrate; kallikrein 15 nM with Gly-Pro-Arg-NHMec 9.1 uM, chymotrypsin 2 ug/mL with Ala-Ala-Pro-Phe-NHMec 42.9 uM; 37°C; sodium acetate buffer pH 7.0; Ki from apparent Ki; triplicate.

Chain of Porcine Kallikrein (porcine) (P00752 other isoform, or with tags, fused parts or gaps): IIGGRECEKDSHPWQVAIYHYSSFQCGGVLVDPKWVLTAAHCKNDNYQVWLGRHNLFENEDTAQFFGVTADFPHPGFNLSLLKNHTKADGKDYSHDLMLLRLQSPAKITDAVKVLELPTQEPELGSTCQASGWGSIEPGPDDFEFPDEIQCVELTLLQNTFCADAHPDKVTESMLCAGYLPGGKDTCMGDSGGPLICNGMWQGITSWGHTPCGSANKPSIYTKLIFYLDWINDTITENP

In turn, “recombinant Fasciola hepatica serpin 1 (natural protein)” registered an inhibition of kallikrein (150 nM) activity on a fluorogenic substrate, rFhSrp1 at 10 and 500 nM (48% at 10 nM) in assay [1] of 96%. The Ki in assay [2] was found to be 40 nM.

In the case of “recombinant Fasciola hepatica serpin 2 (natural protein)”, the inhibition of cathepsin G (100 nM) activity on a fluorogenic substrate, rFhSrp2 at 10 and 500 nM (only slightly changed at 10 nM) in assay [3] worked out at 97.5%. Besides, in the assay with Human Chymase (human), the inhibition of chymase (0.6 uM) activity on a fluorogenic substrate, rFhSrp2 at 10 and 500 nM (only slightly changed at 10 nM) came to 100%. In addition, the inhibition of neutrophil elastase (50 nM) activity on a fluorogenic substrate, rFhSrp2 at 10 and 500 nM (only slightly changed at 10 nM) in assay [4] was 99.9%. In addition, in assay [5], the Ki came out at 0.07 nM.
